Measured values: patent US5804412

How the values were obtained:
[1] = target: endogenous EGFR of CV-1 cells (monkey (endogenous EGFR of CV-1 monkey kidney cells)); assay: Scatchard analysis of 125I-EGF binding to vector transfected control CV-1 cells
[2] = target: endogenous EGFR of CV-1 cells (monkey (endogenous EGFR of CV-1 monkey kidney cells)); assay: Scatchard analysis of 125I-EGF binding to SNX1 transfected CV-1 cells
[3] = target: EGFR core tyrosine kinase domain (residues 663-958) fused to LexA (human) (UniProt P00533); assay: yeast two hybrid, LexA-EGFR bait and SNX1-B42 prey, galactose against dextrose control
[4] = target: endogenous EGFR of CV-1 cells (monkey (endogenous EGFR of CV-1 monkey kidney cells))

A Kd [1] of 0.73 nM and a Kd [2] of 1.34 nM were found for 125I-EGF (ligand) in this work.
An induction of β-gal activity in response to galactose induction [3] of 400 x was found for “carboxy terminal 58 amino acids of SNX1 fused to the B42 acid patch transcriptional activation domain” in this work.
An EGFR half life (35S-methionine pulse chase, immunoprecipitation) [4] of 2 h was found for “human SNX1 (sorting nexin 1), full length” in this work.
